{"source": "paper PMC12199414", "about": "“A Self‐Assembling LYTAC Mediates CTGF Degradation and Remodels Inflammatory Tumor Microenvironment for Triple‐Negative Breast Cancer Therapy” (Advanced Science, 2025)", "key": {"MDA‐MB‐231‐Luc cells": {"test_system": "MDA‐MB‐231‐Luc cells", "assay": "Lung metastasis model", "format": "in vivo, BALB/c nude mice", "conditions": "10 mg kg^−1 i.v. every 2 days, 12 times, bioluminescence day 12, 18, 24, n = 3", "procedure": "Exponentially grown 5 × 10^5 MDA‐MB‐231‐Luc cells were suspended in 100 µL of PBS and intravenously injected into female nude BALB/c mice. The mice were randomly divided into […] (n = 3) and treated with PBS, 10 mg kg^−1 NanoCLY via intravenous injection every 2 days for 12 times in total. The growth of lung metastatic tumors was monitored by VISQUE In Vivo Elite after intraperitoneal injection of 20 mg kg^−1 D‐luciferin on day 12, day 18, and day 24. At the end of monitoring on day 24, the lungs were photographed and fixed, and H&E staining. Metastatic areas on the lung surface were quantified by ImageJ software."}, "[1]": {"assay": "Dynamic light scattering: size, PDI, zeta potential", "format": "physicochemical", "conditions": "DLS, 500 µg/mL in PBS", "procedure": "A solution of 1‐Dodecanethiol (0.5 mmol) and 2,2′‐Dithiodipyridine (0.6 mmol) in 10 mL MeOH was vigorously stirred for 3 h at room temperature. The reaction mixture was diluted with petroleum ether/ethyl acetate (50:1, v/v). The purified products 2‐(dodecyldisulfaneyl)pyridine were characterized by MS. CL8‐M6P3 (1.4 mg, 0.56 µmol, 1 eq.) and 2‐(dodecyldisulfaneyl)pyridine (261.7 µg, 0.84 µmol, 1.5 eq.) dissolved in 1 mL DMF/ddH2O (1/1, v:v) was vigorously stirred for 16 h at room temperature. The products were diluted with ddH2O. The aqueous layer was extracted with ethyl acetate three times, and filtered and concentrated under reduced pressure. For particle size measurement, NanoCLY was prepared at a final concentration of 500 µg/mL in PBS, sonicated for 30 min, and used for particle size analyzer (Malvern Panalytical, UK), transmission electron microscope (TEM) analysis (JEOL, Japan) and Nanosight NS300 (Malvern Panalytical, UK). 2‐(dodecyldisulfaneyl)pyridine, ESI‐MS calcd for C17H29NS2 [M + H]^+ 312.55, found 312.20. NanoCLY, ESI‐MS calcd for C107H176N27O47P3S2 [M + H]^+ 2750.77, found 1375.50."}, "[2]": {"assay": "GSH response of NanoCLY (HPLC)", "format": "physicochemical", "procedure": "For in vitro experiments, NanoCLY (0.1 mg mL^−1) was incubated with varying concentrations of GSH (0, 2, 25 × 10^−5 M) in PBS at 37 °C for 6 h. After incubation, the aliquots were analyzed by NanoSight (Malvern Panalytical, UK), HPLC (Agilent, USA), and TEM (JEOL, Japan). For in vivo experiments, when tumor volume reached about 200 mm^3, mice were intratumorally injected with 50 µL NanoCLY (2.5 mg kg^−1), or NanoCLY (2.5 mg kg^−1) with a 20‐min preinjection of H2O2 (2.5 × 10^−2 M). Tumors were collected after 4 h for HPLC analysis.\nFor the DLS assay, NanoCLY solution was mixed with 50% mouse plasma and incubated for different time periods. After incubation, the aliquots were analyzed using DLS. For the NanoCLY stability assay under simulated plasma GSH conditions, NanoCLY solution was mixed with 1.5 × 10^−6 M GSH or 20% mouse plasma, and was incubated for different time periods. After incubation, the aliquots were diluted and analyzed by HPLC."}}, "data": [{"substance": "C12-CPSAAHYL-PEG3-[Pra(M6P)βAla]3-NH2 [NanoCLY, CL8-M6P3 joined to a lauryl chain via disulfide; self-assembling GSH-responsive LYTAC nanoparticle]", "values": [{"measurement": "lung colonization by MDA-MB-231 cells", "setting": "MDA‐MB‐231‐Luc cells", "value": "significantly reduced lung colonization"}, {"measurement": "polymer dispersity index (PDI)", "setting": "[1]", "value": "0.301 ± 0.059"}, {"measurement": "hydrodynamic diameter (size)", "setting": "[1]; sonicated 30 min", "value": "118.0 ± 9.38", "unit": "nm"}, {"measurement": "stability under plasma-mimicking GSH", "setting": "[2]; GSH 1.5 × 10⁻⁶ M, analytical HPLC 214 nm", "value": "remained stable"}, {"measurement": "disulfide linker cleavage at TME-relevant GSH", "setting": "[2]; GSH 2 × 10⁻⁵ and 2.5 × 10⁻⁴ M in PBS, 37 °C, 6 h, NanoCLY 0.1 mg mL^−1, analytical HPLC 214 nm", "value": "selective cleavage of the disulfide linker"}]}]}
